These results are taken from paper PMC10842001 (FEBS letters, 2023).

Assay [1] deals with PSD-95 PDZ3cα protein (residues R309-S422) (UniProt P78352). The experiment in a line: SPR. For orientation: In SPR one partner is held on a chip, and binding of the other changes the refractive index at the surface.
The subject of assay [2] is PDZ3cα fragment. The settings on record: cited from earlier work.
Assay [3] deals with PSD-95 PDZ3cα protein (residues R309-S422) (UniProt P78352 309-422). The experiment in a line: SPR.
Sequence of PSD-95 PDZ3cα protein (residues R309-S422) (UniProt P78352 309-422) (P78352 309-422): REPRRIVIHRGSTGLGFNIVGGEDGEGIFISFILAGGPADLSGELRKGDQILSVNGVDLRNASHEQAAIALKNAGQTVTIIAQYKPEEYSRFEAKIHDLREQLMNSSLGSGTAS

Bridges are numbered along the chain shown (N, C = ends). Where no end group is shown, it is not given here. [ ]: non-standard residue; d: D form. Trp(5-OH) = N[C@@H](Cc1c[nH]c2ccc(O)cc12)C(=O)O; Phe(4-NH2) = Nc1ccc(C[C@H](N)C(=O)O)cc1; βAla = NCCC(=O)O

Sequence of PSD-95 PDZ3cα protein (residues R309-S422) (UniProt P78352) (P78352 309-422): as above

By Kd is commonly meant the equilibrium constant for the complex coming apart. Read a low Kd as a tighter complex. One may read the koff as the rate constant with which the complex falls apart. A lower koff goes with a long-lived complex. In assay [1], “V8L (peptide 9), SYNGAP peptide with the substitution V8L” returned a Kd of 58.4 nM and an off-rate constant (koff) of 0.00381 s⁻¹.

Consider -YKQTSV [CRIPT linear PBM], for which the “fold higher affinity for PDZ3cα fragment than for the isolated PDZ3 domain” value in assay [2] (ref [31]) is given as 21 fold.

The kon is the rate constant with which the complex forms. Read a high kon as faster complex formation. Turning to “F4H (peptide 11), SYNGAP peptide with the substitution F4H”, in assay [1], the Kd amounted to 121 nM, the koff came out at 0.0261 s⁻¹ and the kon stood at 216000 M⁻¹ s⁻¹.

For “V8I (peptide 10), SYNGAP peptide with the substitution V8I”, in assay [1], the Kd is 101 nM and the koff turned out to be 0.00294 s⁻¹.

As for -VQQTRV [SynGAP PBM], in assay [2] (relative to isolated PDZ domains, ref [10], [30]), the “fold higher affinity to the longer PDZ3cα fragment” value is 15 fold.

In assay [3], RRRRRRGSFPPWV[dQ]QTRV [D-Gln9 (peptide 18), SYNGAP peptide with d-Gln] came in with a Kd of 57.3 nM, a koff of 0.0182 s⁻¹ and a kon of 317000 M⁻¹ s⁻¹.

Take RRRRRRGSFPPW[dV]QQTRV [D-Val8 (peptide 17), SYNGAP peptide with d-Val]: in assay [3], the dissociation constant Kd is 20.9 nM, the koff is 0.0459 s⁻¹ and the kon turned out to be 2.19e+06 M⁻¹ s⁻¹.

In assay [3], RRRRRRGSF[dP]PWVQQTRV [D-Pro4 (peptide 15), SYNGAP peptide with d-Pro at the first proline] had a dissociation constant (Kd) of 6.1 nM, a koff of 0.0116 s⁻¹ and a kon of 1.88e+06 M⁻¹ s⁻¹.

As to CGSFPPWVKKTEV (bridge 10-12; not fully specified (residue 10, bridges)) [Syn3* (peptide 4), active component peptide of Syn3 without the poly-arginine moiety], in assay [3], the koff came to 0.0287 s⁻¹ and the kon was 439000 M⁻¹ s⁻¹.

Take CKNYKKTEV (lactam 6-8 via βAla) [Cyclic peptide derived from CRIPT (peptide 6)]: in assay [3], the koff amounted to 0.0291 s⁻¹ and the kon is 76000 M⁻¹ s⁻¹.

Turning to RRRRRRGS[Phe(4-NH2)]PPWVQQTRV [F4-NH2F (peptide 12), SYNGAP peptide with ζ-Amino-Phe in place of Phe4], in assay [3], the Kd was 67.8 nM, the koff came out at 0.0104 s⁻¹ and the kon came out at 153000 M⁻¹ s⁻¹.

In assay [3], RRRRRRGSFPP[Trp(5-OH)]VQQTRV [W7-OHW (peptide 13), SYNGAP peptide with 5-hydroxy-Trp in place of Trp7] had a dissociation constant (Kd) of 446 nM, a koff of 0.0106 s⁻¹ and a kon of 24000 M⁻¹ s⁻¹.

As for RRRRRRGSFP[dP]WVQQTRV [D-Pro5 (peptide 16), SYNGAP peptide with d-Pro at the second proline], in assay [3], the Kd was 24.3 nM, the koff is 0.0444 s⁻¹ and the kon amounted to 1.83e+06 M⁻¹ s⁻¹.

On to RRRRRRG[dS]FPPWVQQTRV [D-Ser3 (peptide 14), SYNGAP peptide with d-Ser], for which, in assay [3], the Kd was 7.8 nM, the koff was 0.00493 s⁻¹ and the kon was determined as 633000 M⁻¹ s⁻¹.

As for GSFPPWVQ [αC binder (peptide 8), fragment of the SYNGAP peptide made up of only αC helix interacting residues], in assay [3], the Kd is 11100 nM, the koff came out at 0.00592 s⁻¹ and the kon is 1000 M⁻¹ s⁻¹.
